Measured values published in paper doi:10.1101/2025.09.04.674342, “Tandem association of CLOCK:BMAL1 complexes on DNA enables recruitment of CBP/p300 through multivalent interactions” (bioRxiv, 2025).
Values belong to the binder of their own block, whether it stands above or below them.

B2: [5,6] TAMRA-labeled BMAL1 minimal TAD peptide (residues 594–626), WT (peptide)
peptide: not shown
modifications: 5,6-TAMRA on the N-terminus; free carboxyl C-terminus
notes: BMAL1 minimal TAD with helix and switch regions, residues 594–626; numbers count on: isoform Q9WTL8-4; also called [5,6]; TAMRA-BMAL1 TAD probe; native TAD probe; source: synthetic peptide (Bio-Synthesis, 95% purity)
B3: BMAL1 TAD (residues 579–626) (domain or fragment)
chain: not shown
notes: numbers count on: isoform Q9WTL8-4; Used at natural abundance or uniformly 15N-labelled; also called 15N BMAL1 TAD; source: E. coli Rosetta (DE3), purified (Ni-NTA, TEV cleavage, Superdex 75); not shown: His6-NusA-XL (HNXL), N-terminal, cleaved
B5: CBP KIX domain (residues 586–672) (domain or fragment)
chain: not shown
notes: CBP KIX domain, mouse, UniProt P45481, residues 586–672; tagless; Plasmid was a gift from Peter Wright; Used at natural abundance or uniformly 15N-labelled; also called WT KIX; 15N CBP KIX; source: E. coli Rosetta (DE3), purified (Ni-NTA through native histidines, size exclusion)
B7: CBP TAZ2 domain (residues 1764–1855; C1776A, C1784A, C1827A, C1828A) (domain or fragment, mouse, UniProt P45481 1764-1855, looked up)
chain: SPQESRRLSIQRAIQSLVHAAQCRNANCSLPSCQKMKRVVQHTKGCKRKTNGGCPVCKQLIALAAYHAKHCQENKCPVPFCLNIKHKLRQQQ
notes: CBP TAZ2 domain, mouse, UniProt P45481, residues 1764–1855, with four cysteine to alanine mutations that increase solubility and stability; source: E. coli (BL21), purified (amylose sepharose, S-sepharose, Superdex 75)

What was measured:
[1] = target: B7; assay: NMR titration; 15N-1H HSQC of 100 μM 15N BMAL1 TAD WT or L606A/L607A with stepwise additions of CBP KIX (WT or 3mut), TAZ1 or TAZ2; 25°C; 10 mM MES pH 6.5, 50 mM NaCl, 10% D2O; KD from fits of concentration-dependent CSPs, apparent; settings: both partners purified
[2] = target: B7; assay: fluorescence polarisation; CBP KIX, TAZ1 or TAZ2 titrated onto [5,6] TAMRA-labeled BMAL1 minimal TAD probes (25 nM in the legend, 50 nM in the methods); 10 mM MES pH 6.5, 50 mM NaCl, 0.05% Tween-20; room temperature; one-site specific binding with Hill coefficient; apparent KDs; settings: both partners purified
[3] = target: B5; assay: ITC; 220–230 μM CBP KIX WT or 3mut titrated into 20–25 μM BMAL1 TAD WT or L606A/L607A; 25°C; 10 mM MES pH 6.5, 50 mM NaCl; one-site model; settings: both partners purified
[4] = target: the molecule itself; assay: cryo-EM structure; two CLOCK:BMAL1 bHLH-PAS-AB protomers on a nucleosome with tandem E-boxes 6 bp apart (SHL +3.9/+5.1); GraFix glutaraldehyde cross-linked; 4.1 Å overall, 8–12 Å in the PAS region
[5] = target: B3; assay: ITC; 220–230 μM CBP KIX WT or 3mut titrated into 20–25 μM BMAL1 TAD WT or L606A/L607A; 25°C; 10 mM MES pH 6.5, 50 mM NaCl; one-site model; settings: both partners purified
[6] = target: B5; assay: NMR titration; 15N-1H HSQC of 100 μM 15N CBP KIX with stepwise additions of natural abundance BMAL1 TAD or truncated peptides; 25°C; 10 mM MES pH 6.5, 50 mM NaCl, 10% D2O; settings: both partners purified
[7] = target: B2; assay: fluorescence polarisation; CBP KIX, TAZ1 or TAZ2 titrated onto [5,6] TAMRA-labeled BMAL1 minimal TAD probes (25 nM in the legend, 50 nM in the methods); 10 mM MES pH 6.5, 50 mM NaCl, 0.05% Tween-20; room temperature; one-site specific binding with Hill coefficient; apparent KDs; settings: both partners purified

binding result [1]: binds
B1: BMAL1 TAD L606A/L607A (residues 579–626) (domain or fragment)
chain: not shown
notes: numbers count on: isoform Q9WTL8-4; Used at natural abundance or 15N-labelled; also called L606A/L607A TAD mutant; 15N BMAL1 TAD L606A/L607A; source: E. coli Rosetta (DE3), purified (Ni-NTA, TEV cleavage, Superdex 75); not shown: His6-NusA-XL (HNXL), N-terminal, cleaved

Binder: B2
binding result [2]: binds

Binder: B3
Kd [3]: ~2 µM
binding result [1]: binds

B4: CLOCK:BMAL1 bHLH-PAS-AB heterodimer (complex)
chain 1: VEEDDKDKAKRVSRNKSEKKRRDQFNVLIKELGSMLPGNARKMDKSTVLQKSIDFLRKHKETTAQSDASEIRQDWKPTFLSNEEFTQLMLEALDGFFLAIMTDGSIIYVSESVTSLLEHLPSDLVDQSIFNFIPEGEHSEVYKILSTHLLESDSLTPEYLKSKNQLEFCCHMLRGTIDPKEPSTYEYVRFIGNFKSLTSVSTSTHNGFEGTIQRTHRPSYEDRVCFVATVRLATPQFIKEMCTVEEPNEEFTSRHSLEWKFLFLDHRAPPIIGYLPFEVLGTSGYDYYHVDDLENLAKCHEHLMQYGKGKSCYYRFLTKGQQWIWLQTHYYITYHQWNSRPEFIVCTHTVVSYAEVRAERRRELGIEESL
chain 2: not shown
notes: CLOCK bHLH PAS-AB, mouse, UniProtKB O08785, residues 26–395; BMAL1 bHLH PAS-AB, mouse, UniProtKB Q9WTL8-4, residues 62–441; numbers count on: isoform Q9WTL8-4; Purified on Ni-NTA and cleaved with His-TEV; also called CLOCK:BMAL1 protomer; source: insect cells (Spodoptera frugiperda or Hi5), purified (Ni-NTA, TEV cleavage, heparin, Superdex 200); copies: 1 + 1
binding result [4]: binds

Binder: B5
stoichiometry N [5]: 0.8 to 1.1

binding result [6]: binds
B6: BMAL1 linker-switch peptide (residues 613–626) (peptide, UniProt Q9WTL8-4 613-626, looked up)
peptide: LGGPVDFSDLPWPL
notes: BMAL1, mouse, residues 613–626 (linker and switch of the TAD); numbers count on: isoform Q9WTL8-4; source: synthetic peptide (Pierce, 95% purity)

Binder: B7
fold lower affinity than TAZ1 [7]: ~20 fold

binding result [6]: binds
B8: trans-locked BMAL1 switch peptide P625A (FSDLPWAL) (peptide)
peptide: FSDLPWAL
notes: numbers count on: isoform Q9WTL8-4; All trans; also called P625A switch; trans-locked switch; source: synthetic peptide (solid phase, Fmoc chemistry; C18 HPLC)
